Measured values reported in US20100196361A1, “Method of inhibition of vascular development using an antibody” (DYAX CORP., priority 2003, published 2010).

T1: human Tie1 Fc (Homo sapiens, UniProt P35590)
T1 construct: selected against the Tie1 extracellular domain fused to human Fc or to a histidine purification tag
T1 sequence (P35590 22-759 limits assumed): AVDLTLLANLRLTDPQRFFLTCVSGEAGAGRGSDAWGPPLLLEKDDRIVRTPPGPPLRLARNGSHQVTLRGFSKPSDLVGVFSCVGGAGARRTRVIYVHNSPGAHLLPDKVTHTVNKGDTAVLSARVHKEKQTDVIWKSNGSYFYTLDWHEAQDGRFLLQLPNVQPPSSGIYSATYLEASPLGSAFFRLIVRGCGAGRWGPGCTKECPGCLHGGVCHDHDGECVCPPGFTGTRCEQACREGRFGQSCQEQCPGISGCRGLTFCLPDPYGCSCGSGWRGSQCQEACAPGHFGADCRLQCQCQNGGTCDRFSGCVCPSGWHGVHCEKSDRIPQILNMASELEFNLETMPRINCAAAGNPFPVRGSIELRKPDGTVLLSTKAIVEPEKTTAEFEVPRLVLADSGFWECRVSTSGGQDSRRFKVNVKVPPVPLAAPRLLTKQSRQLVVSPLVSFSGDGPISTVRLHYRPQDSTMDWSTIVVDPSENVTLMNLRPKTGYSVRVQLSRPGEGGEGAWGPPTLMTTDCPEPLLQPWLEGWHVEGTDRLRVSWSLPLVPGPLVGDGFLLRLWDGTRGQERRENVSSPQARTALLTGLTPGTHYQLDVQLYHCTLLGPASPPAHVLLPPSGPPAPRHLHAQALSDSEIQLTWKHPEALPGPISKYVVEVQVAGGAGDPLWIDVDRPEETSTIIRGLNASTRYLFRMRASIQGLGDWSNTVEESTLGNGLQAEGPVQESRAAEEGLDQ

B1: parental E3 Fab: soluble Fab fragment of the parental E3 anti-Tie1 antibody (antibody, V domains shown)
VH: EVQLLESGGGLVQPGGSLRLSCAASGFTFSMYGMVWVRQAPGKGLEWVSVISPSGGNTGYADSVKGRFTISRDNSKNTLYLQVNSLRAEDTAVYYCARAPRGYSYGYYYWGQGTLVTVSSASTKGPSVFPLAPSSKSTSGG
VL: DIQMTQSPLSLSASVGDRVTITCRASQGIGHYLAWYQQKPGKVPKLLIYTASTLQSGVPSRFSGSGSGTDFTLTINSLQPEDVATYYCQQFNSYPHTFGQGTRLDIK
B2: DX-2210: E3 antibody in which the light chain has been germlined (antibody, V domains shown)
VH: EVQLLESGGGLVQPGGSLRLSCAASGFTFSMYGMVWVRQAPGKGLEWVSVISPSGGNTGYADSVKGRFTISRDNSKNTLYLQVNSLRAEDTAVYYCARAPRGYSYGYYYWGQGTLVTVSSASTKGPSVFPLAPSSKSTSGG
VL: DIQMTQSPSSLSASVGDRVTITCRASQGIGHYLAWYQQKPGKVPKLLIYTASTLQSGVPSRFSGSGSGTDFTLTISSLQPEDVATYYCQQFNSYPHTFGQGTRLEIK

Assays:
human Tie1 Fc = target: T1, human Tie1 Fc; test: BIAcore, Fab over Tie1/Fc coated on CM5 chip; assay type: binding; settings: Fab analyte
Description: To evaluate if the binding behaviour had been affected in any way by the conversion of the somatic mutations back to germline residues, the parental and the germlined E3b antibodies were produced and tested in Biacore as Fab fragments. Here, by contrast to what was done for the IgGs (see Example 28), and in order to measure a monovalent interaction, the Fabs were run over the antigen directly coated onto the surface.
Recombinant human Tie1/Fc was coated on a CM5 chip. The surface of the chip was first activated with a 7-minute pulse of 0.05 M NHS/0.2 M EDC, then Tie1/Fc (2 μg/ml in 10 mM sodium acetate, pH 4.0) was run over the chip surface until 750 RUs were coated on the surface. All flow cells were subsequently deactivated with a 7-minute pulse of 1 M ethanolamine hydrochloride, pH 8.5. All further experiments were performed in HBS buffer.
The parental and the germlined E3b Fabs were prepared. A series of dilution (50, 25, 12.5, 6.25 and 3.125 nM) was prepared in HBS buffer. Samples were injected at 30 μl/min for 5.3 minutes using the KINJECT™ program. This was followed by a 10-minute dissociation phase, and the remaining Fab was stripped from the surface with a single 18-sec injection of 50 mM NaOH/1 M NaCl.
Sensorgrams were analyzed using the simultaneous ka/kd fitting program from the BIAEVALUATION™ software 3.1 assuming a 1:1 model.

HUVEC = test: Flow cytometry on HUVEC control cells; assay type: binding, human
Protocol: Specific binding of the Tie1 antibodies and of control Mabs to mouse endothelial cells was measured by flow cytometry analysis (FACSscan, Becton Dickinson, Oxnard, Epics, Coulter). Mouse endothelial cell lines MS1, Le-2, Bend3, SVEC (ATCC, Rockville) and Tie1 transfected Le-2 cells were stained. Cell staining was modified from existing protocols. About 200,000 cells were used in each experiment: after trypsinization, cells were washed one time in PBS and resuspended PBS, 10% heat inactivated human serum (incubation buffer). To test specificity, antibodies were incubated at different dilutions for 1 h at room temperature. Cells were spun down by centrifugation for 3 min at 611 g. Between incubations cells were washed twice with PBS. […] After the final incubation step bound antibodies were detected by means of flow cytometry on a FACSCan and Epics Altra (Becton Dickinson, Oxnard, Coulter) and results analyzed.
Intracellular Tie1 was measured as described above, except for the addition of Saponin to the incubation buffer to a final concentration of 0.1% during incubations. […] The binding pattern in mouse cell lines detected by flow cytometry is different from the binding pattern in HUVEC in that in mouse cells there is a greater cell surface staining than that compared to primary human endothelial cell lines. […]

Row | Molecule | koff (human Tie1 Fc; Human Tie1 Fc coated on CM5) [s⁻¹] | kon (human Tie1 Fc; Human Tie1 Fc coated on CM5, 750 RU) [M⁻¹ s⁻¹] | staining of HUVEC control cells (HUVEC)
1 | B1 | 0.00105 | 88100 | –
2 | B2 | – | – | stained positively
